Assays:
[1] = target: uL23(71pBpa), in 70S ribosomes, RNCs or living cells (E. coli) (UniProt P0ADZ0); experiment: cross-linking; competition: SecA (2.5 uM) premixed with Ffh/SRP (0.5, 2.5, 12.5 uM) in buffer C, 10 min 30°C with 0.5 uM 70S ribosomes bearing pBpa at position 71 or 52 of uL23, UV 20 min on ice; anti-SecA and anti-Ffh blots
[2] = target: uL23(52pBpa), in 70S ribosomes, RNCs or living cells (E. coli) (UniProt P0ADZ0); experiment: as above

- reduction of the SecA-uL23 cross-linking product with SRP equimolar to SecA [1]: 50%
- reduction of the SecA-uL23 cross-linking product with SRP equimolar to SecA [2]: 50%
Substance: Ffh, the protein component of the bacterial signal recognition particle (SRP), purified (from UniProt P0AGD7 1-453) (natural protein)

Source: publication PMC6692507
